Data: patent US20230151082A1

Assays:
[1] = target: mesothelin present on the cell membrane of mesothelin-expressing cancer cell lines (AsPC-1; OVCAR-3; NCI-H2052) (human) (UniProt Q13421); test: flow cytometry, phage clone on AsPC-1 cells, anti-M13-FITC
[2] = target: mesothelin present on the cell membrane of mesothelin-expressing cancer cell lines (AsPC-1; OVCAR-3; NCI-H2052) (human) (UniProt Q13421); test: flow cytometry, phage clone on AsPC-1 cells against control K562 cells
[3] = target: human mesothelin protein (MSLN, Acro Biosystems), conjugated to a histidine tag (human) (UniProt Q13421); test: ELISA, purified scFv on coated human mesothelin protein (1 ug/mL), anti-StrepMAB HRP

B1: MSLN34 phage clone (scFv displayed on phage, KBIO human synthetic scFv phage display library KscFv-I) (scFv, not shown: large carriers; small tags and cut ends)
scFv: EVQLVESGGGLVQPGGSLRLSCAASGFTFSDYGMHWVRQAPGKGLEWVSSIYGSGGHTGYADSVKGRFTISRDNSKNTLYLQMNSLRAEDTAVYYCAKQHAYRYSYAFDVWGQGTLVTVSSGGGGSGGGGSGGGGSDIQMTQSPSSLSASVGDRVTITCRASQSISNWLNWYQQKPGKAPKLLIYATSSLQSGVPSRFSGSGSGTDFTLTISSLQPEDFATYYCQQSYSFPFTFGQGTKVEIK
modifications: displayed on M13 phage
B1 showed a relative peak shift value [1] of over 5% and a relative peak shift value [2] of 16.2%.

B2: anti-MSLN-scFv antibody MSLN34 (purified scFv from E. coli periplasm) (scFv, not shown: small tags and cut ends)
scFv: EVQLVESGGGLVQPGGSLRLSCAASGFTFSDYGMHWVRQAPGKGLEWVSSIYGSGGHTGYADSVKGRFTISRDNSKNTLYLQMNSLRAEDTAVYYCAKQHAYRYSYAFDVWGQGTLVTVSSGGGGSGGGGSGGGGSDIQMTQSPSSLSASVGDRVTITCRASQSISNWLNWYQQKPGKAPKLLIYATSSLQSGVPSRFSGSGSGTDFTLTISSLQPEDFATYYCQQSYSFPFTFGQGTKVEIK
With B2 the EC50 [3] was 83 nM.

B3: MSLN37 phage clone (scFv displayed on phage, KBIO human synthetic scFv phage display library KscFv-I) (scFv, V domains shown)
VH: EVQLVESGGGLVQPGGSLRLSCAASGFTFSSYAMHWVRQAPGKGLEWVSGISGSGGTTYYADSVKGRFTISRDNSKNTLYLQMNSLRAEDTAVYYCAKEVEGQSQEYFDIWGQGTLVTVSS
VL: DIQMTQSPSSLSASVGDRVTITCRASQSIANYLNWYQQKPGKAPKLLIYAASNLQSGVPSRFSGSGSGTDFTLTISSLQPEDFATYYCQQSYSFPYTFGQGTKVEIK
For B3, the relative peak shift value [1] was over 5% and the relative peak shift value [2] was 5.9%.
